Changes are numbered by the printed parent chain. Numbers in names are those of the source.
B1: OB-1 laccase (evolved variant of PM1 laccase, PM1Lac) (basidiomycete PM1; A260P/A482T/D302E/H229Y/S245G/S447N/V183A) (protein)
chain: SIGPVADLTISNGAVSPDGFSRQAILVNDVFPSPLITGNKGDRFQLNVIDNMTNHTMLKSTSIHWHGFFQHGTNWADGPAFVNQCPISTGHAFLYDFQVPDQAGTFWYHSHLSTQYCDGLRGPIVVYDPQDPHKSLYDVDDDSTVITLADWYHLAAKVGPAAPTADATLINGLGRSINTLNADLAVITVTKGKRYRFRLVSLSCDPNYTFSIDGHSLTVIEADGVNLKPQTVDSIQIFPAQRYSFVLNADQDVDNYWIRALPNSGTRNFDGGVNSAILRYEGAAPVEPTTTQTPSTQPLVESALTTLEGTAAPGNPTPGGVDLALNMAFGFAGGRFTINGASFTPPTVPVLLQILSGAQSAQDLLPSGSVYSLPANADIEISLPATSAAPGFPHPFHLHGHTFAVVRSAGSSTYNYANPVYRDVVNTGSPGDNVTIRFRTDNPGPWFLHCHIDFHLEAGFTVVMAEDIPDVAATNPVPQAWSDLCPTYDALSPDDQ
notes: mature laccase secreted from S. cerevisiae BJ5465 (pJRoC30) with evolved alpha-factor prepro-leader carrying V[alpha10]D, N[alpha23]K, A[alpha87]T; purified to homogeneity
B2: OB-1 laccase (evolved variant of PM1 laccase, PM1Lac) (basidiomycete PM1; A260P/A261G/A482T/D302E/H229Y/S245G/S447N/V183A) (protein)
chain: B1 chain with A240G
notes: as for B1

Legend:
Assay in all cases: purified protein
Settings in all cases: sodium phosphate/citrate buffer 100 mM, pH 4.0
purified protein [1] = substrate: COc1ccccc1O
purified protein [2] = substrate: CCn1c(=NN=c2sc3cc(S(=O)(=O)O)ccc3n2CC)sc2cc(S(=O)(=O)O)ccc21; type: biochemical, basidiomycete PM1
purified protein [3] = substrate: COc1cc(/C=C/C(=O)O)cc(OC)c1O; type: biochemical, basidiomycete PM1
purified protein [4] = substrate: COc1cccc(OC)c1O; type: biochemical, basidiomycete PM1

Protein | Km (purified protein [1]) [µM] | kcat (purified protein [1]) [s⁻¹] | kcat/Km (purified protein [1]) [M⁻¹ s⁻¹] | Km (purified protein [2]) [µM] | kcat (purified protein [2]) [s⁻¹] | kcat/Km (purified protein [2]) [M⁻¹ s⁻¹] | Km (purified protein [3]) [µM] | kcat (purified protein [3]) [s⁻¹] | kcat/Km (purified protein [3]) [M⁻¹ s⁻¹] | Km (purified protein [4]) [µM] | kcat (purified protein [4]) [s⁻¹] | kcat/Km (purified protein [4]) [M⁻¹ s⁻¹]
B1 | 2600 ± 400 | 117 | 44600 | 7 ± 0.6 | 690 ± 20.2 | 1.06e+08 | 320 ± 20 | 741 ± 14.1 | 2.29e+06 | 150 ± 10 | 565 ± 13 | 3.84e+06
B2 | 3400 ± 400 | 171 | 50300 | 9 ± 0.9 | 1330 ± 42.3 | 1.4e+08 | 450 ± 60 | 1430 ± 65.2 | 3.18e+06 | 230 ± 10 | 1130 ± 18.4 | 5.56e+06

Source: article PMC7218104, “Consensus Design of an Evolved High-Redox Potential Laccase” (Frontiers in Bioengineering and Biotechnology, 2020)
